# Results as given in FireProtDB (doi:10.1016/j.jmb.2009.05.011).
# “And” between values parts separate entries of the source, which are not always exact repeats. Equal entries are not always repeated.
# B1: Dihydrolipoyllysine-residue succinyltransferase component of 2-oxoglutarate dehydrogenase complex, P0AFG6 (parent)
# chain: MSSVDILVPDLPESVADATVATWHKKPGDAVVRDEVLVEIETDKVVLEVPASADGILDAVLEDEGTTVTSRQILGRLREGNSAGKETSAKSEEKASTPAQRQQASLEEQNNDALSPAIRRLLAEHNLDASAIKGTGVGGRLTREDVEKHLAKAPAKESAPAAAAPAAQPALAARSEKRVPMTRLRKRVAERLLEAKNSTAMLTTFNEVNMKPIMDLRKQYGEAFEKRHGIRLGFMSFYVKAVVEALKRYPEVNASIDGDDVVYHNYFDVSMAVSTPRGLVTPVLRDVDTLGMADIEKKIKELAVKGRDGKLTVEDLTGGNFTITNGGVFGSLMSTPIINPPQSAILGMHAIKDRPMAVNGQVEILPMMYLALSYDHRLIDGRESVGFLVTIKELLEDPTRLLLDV
# Variants of: B1
# Conditions: Escherichia coli (strain K12), pH 7, structure 1W4H, whole UniProt chain shown
# [1] = 10 °C, GdnHCl, CD, 3-[morpholino]propanesulfonic acid 50 mM, NaCl 200 mM
# [2] = 10 °C, GdnHCl, Fluorescence, 3-[morpholino]propanesulfonic acid 50 mM, NaCl 200 mM
# [3] = Thermal, CD, Potassium phosphate 50 mM, KCl 200 mM
Variant,denaturant m value [1],denaturant midpoint (higher = more stable) [1],unfolding free energy [1],unfolding free energy [2],ddG of mutation (higher = less stable) [1],denaturant m value [2],Tm [3],ddG of mutation (higher = less stable) [3],unfolding enthalpy (van 't Hoff) [3]
MSSVDILVPDLPESVADATVATWHKKPGDAVVRDEVLVEIETDKVVLEVPASADGILDAVLEDEGTTVTSRQILGRLREGNSAGKETSAKSEEKASTPAQRQQASLEEQNNDAWSPAIRRLLAEHNLDASAIKGTGVGGRLTREDVEKHLAKAPAKESAPAAAAPAAQPALAARSEKRVPMTRLRKRVAERLLEAKNSTAMLTTFNEVNMKPIMDLRKQYGEAFEKRHGIRLGFMSFYVKAVVEALKRYPEVNASIDGDDVVYHNYFDVSMAVSTPRGLVTPVLRDVDTLGMADIEKKIKELAVKGRDGKLTVEDLTGGNFTITNGGVFGSLMSTPIINPPQSAILGMHAIKDRPMAVNGQVEILPMMYLALSYDHRLIDGRESVGFLVTIKELLEDPTRLLLDV [L114W],0.67 kcal/mol/M,3.15 M,2.11 kcal/mol,2.22 kcal/mol,,,,,
MSSVDILVPDLPESVADATVATWHKKPGDAVVRDEVLVEIETDKVVLEVPASADGILDAVLEDEGTTVTSRQILGRLREGNSAGKETSAKSEEKASTPAQRQQASLEEQNNDALSPAIRRLLAEHNLDASAIKGTGVGGRLTREDVEKGLAKAPAKESAPAAAAPAAQPALAARSEKRVPMTRLRKRVAERLLEAKNSTAMLTTFNEVNMKPIMDLRKQYGEAFEKRHGIRLGFMSFYVKAVVEALKRYPEVNASIDGDDVVYHNYFDVSMAVSTPRGLVTPVLRDVDTLGMADIEKKIKELAVKGRDGKLTVEDLTGGNFTITNGGVFGSLMSTPIINPPQSAILGMHAIKDRPMAVNGQVEILPMMYLALSYDHRLIDGRESVGFLVTIKELLEDPTRLLLDV [H149G],0.64 kcal/mol/M,1.25 M,0.8 kcal/mol,0.93 kcal/mol,1.87 kcal/mol,0.45 kcal/mol/M and 0.21 kcal/mol/M,33.9 °C,1.58 kcal/mol,8 kcal/mol
MSSVDILVPDLPESVADATVATWHKKPGDAVVRDEVLVEIETDKVVLEVPASADGILDAVLEDEGTTVTSRQILGRLREGNSAGKETSAKSEEKASTPAQRQQASLEEQNNDALSPAIRRLLAEHNLDASAIKGTGVGGRATREDVEKHLAKAPAKESAPAAAAPAAQPALAARSEKRVPMTRLRKRVAERLLEAKNSTAMLTTFNEVNMKPIMDLRKQYGEAFEKRHGIRLGFMSFYVKAVVEALKRYPEVNASIDGDDVVYHNYFDVSMAVSTPRGLVTPVLRDVDTLGMADIEKKIKELAVKGRDGKLTVEDLTGGNFTITNGGVFGSLMSTPIINPPQSAILGMHAIKDRPMAVNGQVEILPMMYLALSYDHRLIDGRESVGFLVTIKELLEDPTRLLLDV [L141A],,,,0.46 kcal/mol,,0.48 kcal/mol/M,26.4 °C,2.12 kcal/mol,10 kcal/mol
MSSVDILVPDLPESVADATVATWHKKPGDAVVRDEVLVEIETDKVVLEVPASADGILDAVLEDEGTTVTSRQILGRLREGNSAGKETSAKSEEKASTPAQRQQASLEEQNNDALSPAIRRLLAEHNLDASAIKGTGGGGRLTREDVEKHLAKAPAKESAPAAAAPAAQPALAARSEKRVPMTRLRKRVAERLLEAKNSTAMLTTFNEVNMKPIMDLRKQYGEAFEKRHGIRLGFMSFYVKAVVEALKRYPEVNASIDGDDVVYHNYFDVSMAVSTPRGLVTPVLRDVDTLGMADIEKKIKELAVKGRDGKLTVEDLTGGNFTITNGGVFGSLMSTPIINPPQSAILGMHAIKDRPMAVNGQVEILPMMYLALSYDHRLIDGRESVGFLVTIKELLEDPTRLLLDV [V137G],0.73 kcal/mol/M,2.49 M,1.82 kcal/mol,2.03 kcal/mol,0.98 kcal/mol,0.47 kcal/mol/M and 0.24 kcal/mol/M,43.1 °C,0.84 kcal/mol,18 kcal/mol
MSSVDILVPDLPESVADATVATWHKKPGDAVVRDEVLVEIETDKVVLEVPASADGILDAVLEDEGTTVTSRQILGRLREGNSAGKETSAKSEEKASTPAQRQQASLEEQNNDALSPAIRRLLAEWNLDASAIKGTGVGGRLTREDVEKHLAKAPAKESAPAAAAPAAQPALAARSEKRVPMTRLRKRVAERLLEAKNSTAMLTTFNEVNMKPIMDLRKQYGEAFEKRHGIRLGFMSFYVKAVVEALKRYPEVNASIDGDDVVYHNYFDVSMAVSTPRGLVTPVLRDVDTLGMADIEKKIKELAVKGRDGKLTVEDLTGGNFTITNGGVFGSLMSTPIINPPQSAILGMHAIKDRPMAVNGQVEILPMMYLALSYDHRLIDGRESVGFLVTIKELLEDPTRLLLDV [H125W],0.7 kcal/mol/M,3.96 M,2.77 kcal/mol,2.55 kcal/mol,,,54.1 °C,,25 kcal/mol
MSSVDILVPDLPESVADATVATWHKKPGDAVVRDEVLVEIETDKVVLEVPASADGILDAVLEDEGTTVTSRQILGRLREGNSAGKETSAKSEEKASTPAQRQQASLEEQNNDALSPAIRRLLAEHNLDASAIKGTGVGGRLTREDVEKHAAKAPAKESAPAAAAPAAQPALAARSEKRVPMTRLRKRVAERLLEAKNSTAMLTTFNEVNMKPIMDLRKQYGEAFEKRHGIRLGFMSFYVKAVVEALKRYPEVNASIDGDDVVYHNYFDVSMAVSTPRGLVTPVLRDVDTLGMADIEKKIKELAVKGRDGKLTVEDLTGGNFTITNGGVFGSLMSTPIINPPQSAILGMHAIKDRPMAVNGQVEILPMMYLALSYDHRLIDGRESVGFLVTIKELLEDPTRLLLDV [L150A],0.71 kcal/mol/M and 0.69 kcal/mol/M,3.02 M and 1.98 M,2.14 kcal/mol and 1.37 kcal/mol,2.13 kcal/mol and 1.46 kcal/mol,0.6 kcal/mol and 0.74 kcal/mol,,,0.57 kcal/mol and 1.18 kcal/mol,23 kcal/mol and 18 kcal/mol
